“Also recorded” adds a separate entry of the source. Marks after values point to notes of the source that are not given here.
Assays:
ERH-2:PID-3^pep 1:2 = target: T1, ERH-2:PID-3^pep 1:2 (Caenorhabditis elegans, UniProt O76616+Q20057); assay: Isothermal titration calorimetry, binding to ERH-2:PID-3^pep 1:2; set-up: species or system C. elegans; settings: ITC, 25°C, 50 mM Tris, 250 mM NaCl, 1 mM TCEP, pH 7.50; 20 μM ERH-2:40 μM PID-3^pep in cell, 431 μM TOST-1^FL in syringe; average and SD of two or three measurements
T1 sequence (Q20057 1-113): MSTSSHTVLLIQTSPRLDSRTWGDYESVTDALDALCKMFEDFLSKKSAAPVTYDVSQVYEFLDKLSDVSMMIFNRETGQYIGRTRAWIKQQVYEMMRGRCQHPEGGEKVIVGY
T1 sequence (O76616 171-203 partner limits assumed): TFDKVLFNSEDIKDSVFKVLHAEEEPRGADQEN

ERH-2 [1] = target: T2, ERH-2 (Caenorhabditis elegans, UniProt Q20057); assay: Isothermal titration calorimetry, binding to ERH-2; set-up: species or system C. elegans; settings: ITC, 20 μM ERH-2 in cell, 431 μM TOST-1^FL in syringe; N fixed at 1, not fitted
T2 sequence (Q20057 1-113): T1 sequence (Q20057 1-113)

[2] = tested on: ERH-2 alone, ERH-2/PID-3 subcomplex, full PETISCO; assay: Streptavidin pull-down, TOST-1-mVenus-Strep with ERH-2, ERH-2/PID-3 or PETISCO; assay type: binding, C. elegans; settings: TOST-1-mVenus-Strep as bait
ERH-2 [3] = assay: Streptavidin pull-down, TOST-1/PID-1 mVenus-Strep bait with ERH-2; assay type: binding, C. elegans; settings: TOST-1 or PID-1 mVenus-Strep bait 10-20 μM, prey 1.2-fold molar excess, 4°C
ERH-2 [4] = target: T2, ERH-2; assay: NMR-monitored titration of 15N-labeled ERH-2; assay type: binding, C. elegans; settings: TOST-1^FL added to 15N-labeled ERH-2, 25°C
ERH-1 = target: T3, ERH-1 (Caenorhabditis elegans, UniProt Q22640); assay: Streptavidin pull-down, TOST-1/PID-1 mVenus-Strep bait with ERH-1; assay type: binding, C. elegans; settings: TOST-1 or PID-1 mVenus-Strep bait 10-20 μM, prey 1.2-fold molar excess, 4°C
T3 sequence (Q22640 1-103): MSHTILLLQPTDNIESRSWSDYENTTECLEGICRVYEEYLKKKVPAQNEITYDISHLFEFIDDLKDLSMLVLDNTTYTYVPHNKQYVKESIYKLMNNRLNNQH

ERH-2/PID-3 = assay: SEC assay, ERH-2/TOST-1/PID-3 complex; assay type: binding, C. elegans; settings: full-length ERH-2, TOST-1 and PID-3, 1:1 ratio
TOFU-6^RRM = assay: SEC assay, TOFU-6^RRM with PID-3^RRM; assay type: binding, C. elegans; settings: 1:1.5 molar ratio, Superdex 200 Increase 10/300
[5] = tested on: Cy5-labeled 16-mer oligo(U) RNA; assay: Fluorescence anisotropy RNA binding, Cy5-U16; settings: 100 nM Cy5-U16 RNA, pH 7.5, 15°C
[6] = tested on: FITC-labeled 28-mer RNA based on the 21U-3372 precursor; assay: Fluorescence anisotropy RNA binding, FITC-28-mer pre-piRNA; set-up: species or system C. elegans; settings: 100 nM FITC-28-mer RNA, pH 7.5, 15°C
ERH-2 [7] = assay type: binding, C. elegans
PID-3/TOFU-6 interaction = assay type: binding, C. elegans
[8] = SEC-MALS, molecular mass and oligomeric state; assay type: physicochemical, C. elegans

B1: TOST-1^FL: full-length TOST-1 (protein)
chain: MTTAIQYQVIPLADREHSNKVASILENKYKTATNKRITLNERFGVLEKGYTIQATEPETVKNDSDVFFVVHDRNLNSKKEFVENYLAKNPIVNSPEKVFEEEDKENAPTKKAVLKPSSTDEKKLTSSDIYIQEITRSILQSV
modifications: left off: His6, N-terminal, state not stated | Trx, N-terminal, state not stated
ERH-2:PID-3^pep 1:2
  Kd: 15 ± 2 µM
ERH-2 [1]
  N (stoichiometry): 1^c
[2]
  pull-down of ERH-2 alone, with PID-3 or within PETISCO: pulled down ERH-2 in all conditions; also recorded: more ERH-2 is pulled down when ERH-2 is in complex with PID-3 or as part of PETISCO
ERH-2 [3]
  binding to ERH-2 in streptavidin pull-down: Both PID-1 and TOST-1 bound ERH-2; also recorded: more efficient bait than PID-1
ERH-2 [4]
  amide CSPs of full-length protein vs peptide: very similar amide CSPs
ERH-1
  binding to ERH-1 in streptavidin pull-down: interacted with ERH-1; also recorded: more efficient bait than PID-1
ERH-2/PID-3
  trimeric complex formation by SEC: elutes at smaller elution volumes than the dimeric subcomplexes

B2: PID-3^RRM: PID-3 RRM domain, residues 196–274 (protein)
chain: PRGADQENMLKISGYPGMLNTFGIAQLLTPYRVNGITITGAQSAVVALENKFQVYQAVQDFNGKKLDRNHKLQVSSLVV
modifications: left off: His6, N-terminal, state not stated | GST, N-terminal, state not stated
TOFU-6^RRM
  PID-3^RRM/TOFU-6^RRM interaction by SEC: This is supported by SEC
[5]
  relative RNA binding affinity: lowest binding affinity
[6]
  relative RNA binding affinity: lowest binding affinity
ERH-2 [7]
  binding to ERH-2 in GST pull-down: failed to bind ERH-2
PID-3/TOFU-6 interaction
  PID-3/TOFU-6 interaction in pull-down: the RRM domains of PID-3 and TOFU-6 mediate the interaction between the two proteins
[8]
  oligomeric state: homodimers

Source: publication PMC8415317 (Genes & Development, 2021)
